Molecular target: T1, GST-AtWRI1 (Arabidopsis, UniProt Q6X5Y6 1-430)
T1 construct: Arabidopsis WRINKLED1 (AtWRI1), AT3G54320, full-length, sub-cloned into pET41a-GST; also called WRINKLED1; GST agarose-coupled AtWRI1; source: E. coli BL21 (DE3), purified
T1 sequence (looked up): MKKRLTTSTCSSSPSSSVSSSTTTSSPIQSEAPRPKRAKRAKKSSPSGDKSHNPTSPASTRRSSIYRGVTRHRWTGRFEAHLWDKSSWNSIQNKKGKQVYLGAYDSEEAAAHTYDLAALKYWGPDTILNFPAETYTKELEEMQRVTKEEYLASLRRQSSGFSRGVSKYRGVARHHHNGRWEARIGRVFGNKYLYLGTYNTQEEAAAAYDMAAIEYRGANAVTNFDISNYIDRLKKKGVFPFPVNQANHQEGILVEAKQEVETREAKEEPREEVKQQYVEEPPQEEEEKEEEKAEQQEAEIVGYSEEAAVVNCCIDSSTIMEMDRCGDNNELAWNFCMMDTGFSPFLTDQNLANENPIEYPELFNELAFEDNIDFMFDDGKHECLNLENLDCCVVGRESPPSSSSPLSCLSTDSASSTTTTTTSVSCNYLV
Test: pull-down; purified His-TCP20 incubated with GST beads coupled with purified GST-AtWRI1; 20 mM Tris-HCl pH 7.4, 150 mM NaCl, 1 mM DTT, 0.1 mM EDTA, 0.1% IGEPAL CA-630, 4 °C overnight, 5 washes; immunoblot with anti-His antibody
Settings: both partners purified

B1: His-TCP20 (natural protein)
chain: not shown
notes: Arabidopsis TCP20, AT3G27010, full-length, sub-cloned into pET41a-6xHis; also called His-tagged TCP20; source: E. coli BL21 (DE3), purified
B1: binds.
